According to patent CN115181181A (NANJING RONGJIEKANG BIOTECHNOLOGY CO LTD, dated 2022):

T1: 人源重组CD25蛋白 (human IL-2RA) (human, UniProt P01589 22-240)
T1 construct: extracellular domain; also called CD25重组蛋白; 人源重组胞外结构域蛋白
T1 sequence (looked up): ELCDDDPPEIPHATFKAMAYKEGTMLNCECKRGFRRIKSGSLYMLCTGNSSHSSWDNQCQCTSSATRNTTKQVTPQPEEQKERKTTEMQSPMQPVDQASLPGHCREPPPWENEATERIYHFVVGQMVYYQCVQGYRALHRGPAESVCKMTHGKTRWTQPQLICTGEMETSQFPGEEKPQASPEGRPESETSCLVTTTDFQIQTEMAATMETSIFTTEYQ

B1: 单域抗体4H7 (原核粗提VHH) (VHH)
VHH: ESGGGSVQAGGSLRLSCAASESTYRRTYMAWFRQAPGKERDGVAVIYTGNGVTWYADSVEGRFTISQDNAKNTVYLQMNSLKPEDTAMYYCAADSMRGRNVLHSGFYHYWGQGTQVTVSS
notes: also called VHH11; not shown: tags from the pMECS vector (detected with anti-HA antibody)
B2: 单域抗体1H1 (原核粗提VHH) (VHH)
VHH: ESGGGSVQAGGSLRLSCAASGYTSRRNCMGWFRQAPGKEREGVAAINTAGGHTYYADSVEGRFTISQDNARNTVYLQMNSLKPEDTGMYYCAAETGSYCYAHVPESADFGYWGQGTQVTVSS
notes: also called VHH4; not shown: tags from the pMECS vector (detected with anti-HA antibody)
B3: 单域抗体2H3 (原核粗提VHH) (VHH)
VHH: ESGGGSVQAGGSLRLSCAASGHTSSSNRMGWFRQAPGKEPEGVAVISTGGGRTLYADSVKGRFTISQDNAKNTLGLQMNSLKPEDTAMYYCAAAASSIAISRFWTWPPKEFFDYWGQGTQVTVSS
notes: also called VHH5; not shown: tags from the pMECS vector (detected with anti-HA antibody)
B4: 单域抗体1A5 (原核粗提VHH) (VHH)
VHH: ESGGGSVQAGGSLRLSCAASGYTYSSNCMGWFRQAPGKEREGVAAIDTGGGHTYYADSVVKGRFTISQDNAKNTVYLQMNSLKPEDTAMYYCAADSGYCYAEEPAPDRFGYWGQGTQVTVSS
notes: also called VHH1; not shown: tags from the pMECS vector (detected with anti-HA antibody)
B5: 单域抗体1B5 (原核粗提VHH) (VHH)
VHH: ESGGGSVQAGGSLRLSCAASGYTYSSNCMGWFRQAPGKEREGVAAIDTGGGYTYYADSVEGRFTISQDKAKNTVYLQMNSLKPEDTAMYYCAADTGRCFPHVPYEVDFGYWGQGTQVTVSS
notes: also called VHH2; not shown: tags from the pMECS vector (detected with anti-HA antibody)
B6: 单域抗体1E1 (原核粗提VHH) (VHH)
VHH: ESGGGSVEAGGSLRLSCARPGYDYDTDYMGWFRQAPGKEREGVATIYTQKGFTWYADSVKGRFTISQDNAKNTVYLQMNSLKPEDTAMYYCAAADYGAATSKLNPSKYNAWGQGTQVTVSS
notes: also called VHH3; not shown: tags from the pMECS vector (detected with anti-HA antibody)
B7: 单域抗体3F5 (原核粗提VHH) (VHH)
VHH: ESGGGSVQAGGSLRLSCAASGYTYSRNCVGWFRQAPGKEREGVAAIDSGGGYSYYADSVKGRFTISQDNAKNTVFLQMNSLKPEDTAVYYCAAEPASCFPHVPTEVDFGYWGRGTQVTVSS
notes: also called VHH7; not shown: tags from the pMECS vector (detected with anti-HA antibody)
B8: 单域抗体3G3 (原核粗提VHH) (VHH)
VHH: ESGGGSVQAGGSLRLSCVGSRYTSITGCMGWFRQAPGKEREGVAAIDTGGGHTYYADSVKGRFTIAQDNAKNTVYLQVNSLKPEDTGMYYCAAEASPCFPHNPQVADFGYWGQGTQVTVSS
notes: also called VHH8; not shown: tags from the pMECS vector (detected with anti-HA antibody)
B9: 单域抗体4A4 (原核粗提VHH) (VHH)
VHH: ESGGGSVQAGETLRLSCTASGFTFDDSDMGWYRQAPGNECELVSIMRSDRSTYYAASVKGRFTISQDNAKNTVYLQMNSLKPEDTAVYHCAAAGAISIAAACPTHWWGQGTQVTVSS
notes: also called VHH9; not shown: tags from the pMECS vector (detected with anti-HA antibody)
B10: 单域抗体3E11 (原核粗提VHH) (VHH)
VHH: ESGGGSVQAGGSLRLSCVASGYTYSRRCMGWFRQAPGKEREGVAAIYSGNGVTYYPDSVKGRFTISQDNAKNTVYLQMNSLKPEDTAMYYCAAQGDYCYAHAPEPADFGYWGQGTQVTVSS
notes: also called VHH6; not shown: tags from the pMECS vector (detected with anti-HA antibody)
B11: 单域抗体4D9 (原核粗提VHH) (VHH)
VHH: ESGGGSVQAGGSLRLSCAASGYPYRRNCMGWFRQAPGKEREGVAAIDSAGTTTYADSVKGRFTISKDDAKNTLYLQMNSLKPEDTAMYYCALNAPTWECRAGGAPAFAYSGQGTQVTVSS
notes: also called VHH10; not shown: tags from the pMECS vector (detected with anti-HA antibody)

Target: T1, 人源重组CD25蛋白 (human IL-2RA)
Test: screening ELISA: crude VHH extract on coated CD25, anti-HA-HRP detection; positive if OD450 is over 5 times the control

Binding result, binds:
B1
B2
B3
B4
B5
B6
B7
B8
B9
B10
B11
